The text below walks through data of the supplement of paper PMC10567573.

B1: TRIM43 (parent)
chain: RAQMIRNEYRKLHPVLHKEEKQHL
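Further: lentivirally expressed fusions sorted by FACS into six bins by GFP to DsRed ratio, PSI derived from sequencing read proportions per bin multiplied by bin number.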

Variants of B1 are the subject of this series. Put plainly: protein stability index of a GFP-peptide fusion (GPS, HEK-293T) (PSI 1-6); higher = more stable. Particulars: c terminus: a fixed tail appended.
Regarding RAQMIRNEYRKGHPVLHKEEKQHL, the protein stability index worked out at 4.18. In the case of RAQMIRNEYRKEHPVLHKEEKQHL it was 4.06. Consider RAQMIRNEYRKIHPVLHKEEKQHL, for which the protein stability index was 3.07. As for RAQMIRNEYRKAHPVLHKEEKQHL, the protein stability index came to 3.67.

As to RAQMIRNEYRKHHPVLHKEEKQHL, the protein stability index worked out at 4.27. In the case of RAQMIRNEYRKDHPVLHKEEKQHL, the protein stability index was 4.02. As to RAQMIRNEYRKFHPVLHKEEKQHL, the protein stability index amounted to 2.94. Next, RAQMIRNEYRKCHPVLHKEEKQHL: 3.03. Next, RAQMIRNVYRKLHPVLHKEEKQHL: 2.33. With RAQMIRNSYRKLHPVLHKEEKQHL, the protein stability index was determined as 2.91. On to RAQMIRNKYRKLHPVLHKEEKQHL, for which the protein stability index is 2.92.

Take RAQMIRNFYRKLHPVLHKEEKQHL: the protein stability index was found to be 2.91. Turning to RAQMIRNHYRKLHPVLHKEEKQHL, the protein stability index worked out at 2.78. As for RAQMIRNMYRKLHPVLHKEEKQHL, the protein stability index was found to be 2.2.

For RAQMIRNYYRKLHPVLHKEEKQHL, the protein stability index came out at 2.51. Regarding RAQMIRNGYRKLHPVLHKEEKQHL, the protein stability index worked out at 2.84. RAQMIRNQYRKLHPVLHKEEKQHL: the protein stability index was 2.75. Regarding RAQMIRNRYRKLHPVLHKEEKQHL, the protein stability index is 2.89. Next, RAQMIRNTYRKLHPVLHKEEKQHL: 2.56; RAQMIRNWYRKLHPVLHKEEKQHL: 1.33; RAQMIRNIYRKLHPVLHKEEKQHL: 2.39. With RAQMIRNNYRKLHPVLHKEEKQHL, the protein stability index came out at 3. With RAQMIRNDYRKLHPVLHKEEKQHL, the protein stability index is 3.21.

Take RAQMIRNLYRKLHPVLHKEEKQHL: the protein stability index was 1.75. As to RAQMIRNCYRKLHPVLHKEEKQHL, the protein stability index was found to be 2.59. As for RAQMIRNAYRKLHPVLHKEEKQHL, the protein stability index amounted to 2.16. Take RAQMIRNPYRKLHPVLHKEEKQHL: the protein stability index was 2.72. Take RAQMIRNENRKLHPVLHKEEKQHL: the protein stability index came out at 3.79. In the case of RAQMIRNERRKLHPVLHKEEKQHL it was 3.84.

Regarding RAQMIRNEKRKLHPVLHKEEKQHL, the protein stability index turned out to be 3.65. With RAQMIRNEERKLHPVLHKEEKQHL, the protein stability index was 3.96. Regarding RAQMIRNEGRKLHPVLHKEEKQHL, the protein stability index is 3.96. In the case of RAQMIRNEIRKLHPVLHKEEKQHL it was 3.03; in that of RAQMIRNESRKLHPVLHKEEKQHL, 3.46. As for RAQMIRNEDRKLHPVLHKEEKQHL, the protein stability index was 4.24. Next, RAQMIRNEHRKLHPVLHKEEKQHL: 4.12; RAQMIRNEQRKLHPVLHKEEKQHL: 4.31.

For the variant RAQMIRNEWRKLHPVLHKEEKQHL, the protein stability index was 2.44. RAQMIRNEARKLHPVLHKEEKQHL: the protein stability index worked out at 4.04.

RAQMIRNEMRKLHPVLHKEEKQHL: the protein stability index was determined as 3.97. As to RAQMIRNETRKLHPVLHKEEKQHL, the protein stability index was 4.08. Regarding RAQMIRNEFRKLHPVLHKEEKQHL, the protein stability index worked out at 3.35.

Take RAQMIRNEPRKLHPVLHKEEKQHL: the protein stability index amounted to 3.93. With RAQMIRNEVRKLHPVLHKEEKQHL, the protein stability index amounted to 3.91. In the case of RAQMIRNELRKLHPVLHKEEKQHL, the protein stability index turned out to be 3.25. Next, RAQMIRNECRKLHPVLHKEEKQHL: 3.79. As for RAQMIRMEYRKLHPVLHKEEKQHL, the protein stability index turned out to be 2.98.

For RAQMIRTEYRKLHPVLHKEEKQHL, the protein stability index was 3.3. As to RAQMIRYEYRKLHPVLHKEEKQHL, the protein stability index was 2.74. Next, RAQMIRPEYRKLHPVLHKEEKQHL: 4.17; RAQMIRLEYRKLHPVLHKEEKQHL: 3.49. As for RAQMIRREYRKLHPVLHKEEKQHL, the protein stability index was 3.15. For RAQMIRSEYRKLHPVLHKEEKQHL, the protein stability index is 2.83. Regarding RAQMIRVEYRKLHPVLHKEEKQHL, the protein stability index was found to be 2.64.

Turning to RAQMIRWEYRKLHPVLHKEEKQHL, the protein stability index worked out at 1.96.

Take RAQMIRQEYRKLHPVLHKEEKQHL: the protein stability index is 3.33. Regarding RAQMIRNEYQKLHPVLHKEEKQHL, the protein stability index came to 3.84. With RAQMIRNEYIKLHPVLHKEEKQHL, the protein stability index came to 3.75.

As to RAQMIRNEYNKLHPVLHKEEKQHL, the protein stability index worked out at 3.66.

Regarding RAQMIRNEYVKLHPVLHKEEKQHL, the protein stability index was 3.73.

Regarding RAQMIRNEYWKLHPVLHKEEKQHL, the protein stability index is 2.99.

In the case of RAQMIRNEYAKLHPVLHKEEKQHL, the protein stability index came out at 3.08. As for RAQMIRNEYGKLHPVLHKEEKQHL, the protein stability index was 3.26.

Consider RAQMIRNEYLKLHPVLHKEEKQHL, for which the protein stability index was determined as 3.38. In the case of RAQMIRNEYYKLHPVLHKEEKQHL, the protein stability index was found to be 3.31. In the case of RAQMIRNEYMKLHPVLHKEEKQHL it was 2.91; in that of RAQMIRNEYEKLHPVLHKEEKQHL, 4.09; in that of RAQMIRNEYHKLHPVLHKEEKQHL, 3.39. In the case of RAQMIRNEYCKLHPVLHKEEKQHL it was 3.19. As for RAQMIRNEYKKLHPVLHKEEKQHL, the protein stability index was found to be 2.91. As for RAQMIRNEYTKLHPVLHKEEKQHL, the protein stability index is 3.85. Consider RAQMIRNEYDKLHPVLHKEEKQHL, for which the protein stability index came out at 4.21. For RAQMIRNEYFKLHPVLHKEEKQHL, the protein stability index was determined as 3.4.

For the variant RAQMIRNEYSKLHPVLHKEEKQHL, the protein stability index worked out at 3.71.

Turning to RAQMIRNEYPKLHPVLHKEEKQHL, the protein stability index was 3.76. For RAQMIRNEYRILHPVLHKEEKQHL, the protein stability index is 2.94.

In the case of RAQMIRNEYRPLHPVLHKEEKQHL, the protein stability index was found to be 4.16. Turning to RAQMIRNEYRFLHPVLHKEEKQHL, the protein stability index stood at 3.24. RAQMIRNEYRCLHPVLHKEEKQHL: the protein stability index amounted to 2.79.

RAQMIRNEYRSLHPVLHKEEKQHL: the protein stability index is 2.96. Turning to RAQMIRNEYRYLHPVLHKEEKQHL, the protein stability index was 3.07. Regarding RAQMIRNEYRALHPVLHKEEKQHL, the protein stability index was determined as 3.14. Take RAQMIRNEYRTLHPVLHKEEKQHL: the protein stability index was 3.42.

As for RAQMIRNEYRQLHPVLHKEEKQHL, the protein stability index came to 3.51. In the case of RAQMIRNEYRELHPVLHKEEKQHL it was 4.15; in that of RAQMIRNEYRRLHPVLHKEEKQHL, 3.4; in that of RAQMIRNEYRGLHPVLHKEEKQHL, 3.76.

Turning to RAQMIRNEYRLLHPVLHKEEKQHL, the protein stability index came to 3.49. Take RAQMIRNEYRMLHPVLHKEEKQHL: the protein stability index stood at 3.35. Next, RAQMIRNEYRDLHPVLHKEEKQHL: 4.29. In the case of RAQMIRNEYRWLHPVLHKEEKQHL, the protein stability index is 3.14. RAQMIRNEYRHLHPVLHKEEKQHL: the protein stability index stood at 3.94. In the case of RAQMIRNEYRVLHPVLHKEEKQHL it was 3.4. RAQMIRNEYRNLHPVLHKEEKQHL: the protein stability index turned out to be 3.68.
